Results from patent US5869336A, “Recombinant enzymatically active calpain expressed in a baculovirus system” (Cephalon, Inc., priority 1997, dated 1999).

T1: recombinant human calpain I (Homo sapiens, UniProt P07384)
T1 construct: the 2153 bp fragment containing the entire human 80 kDa calpain I cDNA; made in house; host or cells: Spodoptera frugiperda Sf21 cells, recombinant baculovirus (AcNPV-hCANPI-2-5, or coinfection with AcNPV-hCANP30-5 and AcNPV-hCANPI80-5)
T1 sequence (P07384 2-714): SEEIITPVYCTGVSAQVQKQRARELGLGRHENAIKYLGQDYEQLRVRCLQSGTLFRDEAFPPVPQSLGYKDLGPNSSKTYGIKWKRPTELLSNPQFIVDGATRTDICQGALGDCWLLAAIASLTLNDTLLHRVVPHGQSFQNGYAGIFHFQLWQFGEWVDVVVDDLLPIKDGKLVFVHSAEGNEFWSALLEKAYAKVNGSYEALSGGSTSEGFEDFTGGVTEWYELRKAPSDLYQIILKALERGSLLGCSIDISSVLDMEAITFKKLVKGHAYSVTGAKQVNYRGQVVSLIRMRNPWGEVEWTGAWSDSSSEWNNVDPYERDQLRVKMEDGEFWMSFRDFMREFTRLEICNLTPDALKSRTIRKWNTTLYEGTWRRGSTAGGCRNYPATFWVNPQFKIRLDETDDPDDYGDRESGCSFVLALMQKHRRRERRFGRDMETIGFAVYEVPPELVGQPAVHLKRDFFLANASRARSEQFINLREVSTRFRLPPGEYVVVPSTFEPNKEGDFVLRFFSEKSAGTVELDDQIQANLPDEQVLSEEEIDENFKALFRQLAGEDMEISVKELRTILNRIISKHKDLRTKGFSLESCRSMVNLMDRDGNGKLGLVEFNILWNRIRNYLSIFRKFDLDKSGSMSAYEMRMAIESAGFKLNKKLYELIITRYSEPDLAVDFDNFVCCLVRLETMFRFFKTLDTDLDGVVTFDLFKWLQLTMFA
T1 sequence (P04632 1-268 partner): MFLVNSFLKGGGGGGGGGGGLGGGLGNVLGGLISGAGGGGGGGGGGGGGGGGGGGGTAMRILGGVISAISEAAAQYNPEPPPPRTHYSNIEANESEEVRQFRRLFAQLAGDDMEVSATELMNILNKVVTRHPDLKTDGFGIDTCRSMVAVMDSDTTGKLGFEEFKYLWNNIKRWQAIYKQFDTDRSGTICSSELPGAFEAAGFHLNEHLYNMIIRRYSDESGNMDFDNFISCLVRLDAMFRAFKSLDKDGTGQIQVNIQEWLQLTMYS

B1: native human calpain I: partially-purified native human calpain I (protein, UniProt P07384 2-714; P04632 1-268, looked up)
Calpain-1 catalytic subunit: T1 sequence (P07384 2-714)
Calpain small subunit 1: T1 sequence (P04632 1-268 partner)
B2: 80 kDa recombinant calpain I: recombinant 80 kDa subunit of human calpain I expressed in Sf21 cells infected with AcNPV-hCANPI80-5 (protein, UniProt P07384 2-714, looked up)
Calpain-1 catalytic subunit: T1 sequence (P07384 2-714)
B3: recombinantly produced calpain: recombinant enzymatically active human calpain I, heterodimer of 80 kDa and 30 kDa subunits, expressed in a baculovirus-insect cell system (protein, UniProt P07384 2-714; P04632 1-268, looked up)
Calpain-1 catalytic subunit: T1 sequence (P07384 2-714)
Calpain small subunit 1: T1 sequence (P04632 1-268 partner)

Columns and labels:
[1] = system: native human calpain I; test: Calcium-dependent protease activity (Succ-Leu-Tyr-AMC), native calpain I; format: biochemical; details: 1 mM Succ-Leu-Tyr-AMC, 5 mM CaCl2; FIG. 5a
Protocol: (§1) Sf21 cells were again seeded in 24 well plates at 1.5×10^5 cells/cm^2 and infected with either wild-type virus, coinfected with both AcNPV-hCANP30-5 and AcNPV-hCANPI80-5 (MOI of 5 for each virus), or infected with AcNPV-hCANPI-2-5 (MOI=5.7). The intracellular proteins were harvested at 40 hours after infection with 100 μl/well of the following lysis buffer: 50 mM Tris-HCl, pH 7.5, 50 mM NaCl, 1 mM EDTA, 1 mM EGTA, 5 mM β-mercaptoethanol, 0.1% Triton-100, followed by a 10 minutes centrifugation at 14,000×g at 4° C. to pellet the nuclei and some membranes. The in vitro enzyme activity of 20 μl of each extract (12.5-20 μg of total protein) was measured using the synthetic peptide substrate succinyl-leucine-tyrosine-aminomethyl coumarin (Succ-Leu-Tyr-AMC) at a 1 mM concentration with and without the addition of 5 mM CaCl2 following the procedure of Sasaki et al., J. Biol. Chem., 259:12489-12494 (1984), incorporated herein by reference. The activity obtained was compared with the enzyme activity of 2 μg of partially-purified native human calpain I produced according to the method of Siman et al., supra.
(§2) The activity in the presence of calcium was also measured with the addition of 12.5 μM calpain inhibitor I following the procedure disclosed in Sasaki et al., supra. The results are depicted in FIGS. 5a-d. In FIGS. 5a-d, open circles represent activity without calcium present. […]

[2] = system: recombinant 80 kDa subunit of calpain I; test: Enzymatic activity of independently expressed 80 kDa subunit (Succ-Leu-Tyr-AMC); format: biochemical, human
Protocol: as §1
To determine the relative activity of the recombinantly produced 80 kDasubunit, the enzymatic activity of the subunit was examined in unfractionated extracts from Sf21 cells infected with AcNPV-hCANPI80-5. […] The same amount of enzyme activity for both the recombinant 80 kDa subunit and the recombinant calpain was then run on SDS-PAGE and the amount of each was qualitatively determined by immunoblot analysis as described in Example 4 above. As determined therefrom, approximately 4- to 5-fold more isolated 80 kDa protein is needed to give activity equivalent to that of the heterodimeric protein. Thus, the specific activity of the 80 kDa recombinant calpain I was experimentally determined to be approximately 20-25% that of the heterodimeric calpain I. This is approximately seven times greater than that of the 80 kDa subunit dissociated from native calpain I (Kikuchi et al., supra).

[3] = system: 80 kDa subunit of recombinant calpain I; test: Autolytic processing of the 80 kDa subunit to the 76 kDa form (immunoblot); format: biochemical, human; details: 6.7 mM CaCl2, 5 minutes, room temperature
Protocol: The 76 kDa form is produced in the presence of calcium by autolytic cleavage and is indicative of active enzyme. Lysates from cells either infected with wild-type AcNPV, coinfected with both AcNPV-hCANP30-5 and AcNPV-hCANPI80-5 or infected with AcNPV-hCANPI-2-5 prepared in Example 5 were incubated with or without the addition of 6.7 mM
CaCl2 for 5 minutes at room temperature, stopping the reaction by adding 6.7 mM EDTA and boiling the samples in SDS-PAGE-gel-loading buffer prior to storage at -70° C. The results of PAGE of the preparations are depicted in FIGS. 6a and b. In FIGS. 6a and b, the presence and absence of calcium is indicated by a "+" or "-", respectively. […] A single band is detected in all the samples incubated with calcium (lanes 2,5, and 7), and it comigrates with the 76 kDa native human calpain I (lane 2) that has also been incubated with calcium.
FIG. 6b contains the results of an immunoblot analysis of the same samples as in 6a except that the AB#34 antibody used was generated against the first five amino acids at the N-terminus of the 76 kDa fragment (anti-LGRHEC); (Saido et al., J. Biochem. 111:81-96 (1992)). […] Both the small amounts of the endogenously-cleaved recombinant calpain I large subunit and the single abundant 76 kDa band after the addition of calcium are detected by this antiserum.

[4] = biological target: T1, recombinant human calpain I; test: Calcium-dependent protease activity (Succ-Leu-Tyr-AMC), recombinant calpain in Sf21 cell extracts; format: biochemical
Protocol: as §1, §2

Molecule	calcium-dependent substrate hydrolysis [1]	specific activity relative to heterodimeric calpain I ([2]; 80 kDa subunit alone vs recombinant heterodimer)	specific activity relative to 80 kDa subunit dissociated from native calpain I ([2]; comparison with Kikuchi et al.)	amount of protein needed to give activity equivalent to heterodimeric protein ([2]; isolated 80 kDa protein vs heterodimer)	autocatalytic activation by added calcium [3]	calcium-dependent substrate hydrolysis ([4]; 1 mM Succ-Leu-Tyr-AMC, 5 mM CaCl2, FIGS. 5c, 5d)	specific activity compared with native calpain ([4]; data not shown)
B1	calcium-dependent increase in substrate hydrolysis	–	–	–	–	–	–
B2	–	20-25%	approximately seven	4- to 5 fold	entire amount of the 80 kDa subunit recombinant protein is capable of being autocatalytically activated	–	–
B3	–	–	–	–	correctly autoprocessed the 80 kDa subunit to the "activated" 76 kDa form	calcium-dependent increase in substrate hydrolysis	similar
